Key:
[1] = target: RBD of SARS-CoV-1 (Tor 2) (SARS-CoV-1, Tor2, UniProt P59594); assay: BLI
[2] = target: RBD of pangolin CoV (PCoV-GD1) (Pangolin coronavirus GD/1/2019 …); assay: BLI

B1: D27LEY (antibody, V domains shown)
VH: QVQLQQSGAEVKKPGSSVKVSCKASGGTFGNWSISWVRQAPGQGLEWMGGIAPGRGEATYAQKFQGRVTITTDESTSTAYMELSSLRSEDTAVYYCARETWYTSGGMDVWGQGTTVTVSS
VL: SYELTQPPSVSVAPGKTARITCGGNNIGRKSVHWYQQKPGQAPVLVVYDDSDRPSGIPERFSGSNSGNTATLTISRVEAGDEADYYCQVYDLWSSDYVFGTGTKVEIK
Question: Which Kd [1] does the source give for B1 here?
Answer: The Kd was < 0.001 nM.

Question: What about the Kd [2] of the same binder?
Answer: The Kd was 0.66 nM.

From paper PMC8765073 (mAbs, 2022)
